According to patent US20100047226:

Tests used:
[1] = target: active AKT1 (purified, Upstate Biotechnology) (UniProt P31749)
[2] = target: active AKT1 mutant with a Ser473Asp mutation (UniProt P31749)
[3] = target: active AKT1 mutant with a deletion in the PH domain (UniProt P31749)
[4] = system: T1, ZaTa peptide (PKAc fragment flanking Thr-197)
T1 sequence: AKRVKGRTWTLCGTPEY

[5] = system: T2, control peptide (adjacent overlapping PKAc peptide)
T2 sequence: GFAKRVKGRTWTL

[6] = system: full-length, active PKAc (purified)

Sequence of active AKT1 (purified, Upstate Biotechnology) (P31749 whole entry, looked up): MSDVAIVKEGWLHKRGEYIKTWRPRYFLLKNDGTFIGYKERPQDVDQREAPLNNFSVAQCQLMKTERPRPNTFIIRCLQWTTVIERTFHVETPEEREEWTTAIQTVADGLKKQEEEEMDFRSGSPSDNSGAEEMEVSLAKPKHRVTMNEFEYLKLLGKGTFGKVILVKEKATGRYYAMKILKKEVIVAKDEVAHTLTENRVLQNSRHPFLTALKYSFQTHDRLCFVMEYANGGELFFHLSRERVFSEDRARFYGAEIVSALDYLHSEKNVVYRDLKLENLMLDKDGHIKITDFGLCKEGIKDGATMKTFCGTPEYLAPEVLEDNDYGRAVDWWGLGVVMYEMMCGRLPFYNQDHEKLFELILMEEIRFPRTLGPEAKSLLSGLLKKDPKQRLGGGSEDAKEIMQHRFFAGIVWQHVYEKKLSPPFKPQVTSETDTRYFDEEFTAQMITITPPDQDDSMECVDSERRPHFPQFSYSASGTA
Sequence of active AKT1 mutant with a deletion in the PH domain (P31749 whole entry, looked up, stated change not applied, the tested form may be a part): as the sequence (P31749 whole entry, looked up) above
Sequence of active AKT1 mutant with a Ser473Asp mutation (P31749 whole entry S473D, the tested form may be a part): as the sequence (P31749 whole entry, looked up) above, with S473D counted along it

**Q.** Which “AKT kinase activity in vitro” value [1] does the source give for human PKAc expressed in Sf9 cells here?
**A.** Its value is “the same inhibitory effect was observed ... with human PKAc expressed in Sf9 cells”.

**Q.** Which results are given for full-length, active PKAc (purified)?
**A.** AKT kinase activity in vitro (Ser-9 GSK-3 GST fusion protein as substrate) [1]: the kinetic activity of AKT was dramatically reduced; AKT kinase activity in vitro [2]: The decrease in the catalytic activity of AKT by PKAc was also observed with two mutants and active forms of AKT1 ... the other one with a Ser473Asp mutation; AKT kinase activity in vitro [3]: The decrease in the catalytic activity of AKT by PKAc was also observed with two mutants and active forms of AKT1, one with a deletion in the PH domain

**Q.** Which “AKT kinase activity in vitro” value [1] does the source give for active PKAc purified from bovine tissue here?
**A.** Its value is “the same inhibitory effect was observed with active PKAc purified from bovine tissue”.

**Q.** For “active AKT1 (purified, Upstate Biotechnology)”, which “IC-50 of AKT1 catalytic activity (32P incorporation, CPM)” value [4] is on record?
**A.** The value was “IC-50 of the ZaTa peptide was within a nanomolar range in these assays”.

**Q.** What about the “IC-50 of AKT1 in vitro catalytic activity (32P incorporation into Ser-21 GSK-3 substrate peptide)” value [4] of the same substance?
**A.** Its value is “IC-50 ˜0.1 µM”.

**Q.** What about the “phosphorylation of Ser-9 GSK-3 GST substrate in the AKT1 kinase assay (western blot)” value [4] of the same substance?
**A.** The value was “The phosphorylation level of Ser-9 GSK-3 GST substrate was significantly reduced after adding the ZaTa peptide to the AKT1 kinase assay”.

**Q.** And the “phosphorylation of ZaTa by AKT (control kinase reactions with peptide and AKT only)” value [4]?
**A.** Its value is “ZaTa peptide itself was not a substrate for AKT”.

**Q.** And the “AKT1 in vitro catalytic activity (32P incorporation into Ser-21 GSK-3 substrate peptide)” value [5]?
**A.** Its value is “the adjacent overlapping peptide was not able to inhibit AKT1”.

**Q.** What about the “PKA kinase activity in vitro (phosphorylation of DARPP-32 at Thr-34)” value [6] of the same substance?
**A.** The value was “addition of the active AKT to the PKA kinase assay increased the catalytic activity of PKAc”.

**Q.** What about the “phosphorylation level of PKAc at Thr-197 in vitro” value [6] of the same substance?
**A.** Its value is “the increase in the PKAc catalytic activity was accompanied by an increase in the phosphorylation level of PKAc at Thr-197”.
